According to the nanobody polyreactivity screen of Harvey et al. (2022):

Test: yeast display, Sf9 membrane polyspecificity reagent, FACS + sequencing; frameworks hold sequencing errors
How it was run: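 Polyreactivity labels are assigned by the sorting gate from which each nanobody was recovered. The gates were low and high (top ~1%), set on anti-HA fluorescence for expression and streptavidin fluorescence for reagent binding. Before sorting, galactose-induced (36–48 hours) yeast display cells were stained for 1 hour at 4 °C with 10% biotinylated, detergent-solubilized Sf9 membrane reagent.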

Sequence	polyreactivity (PSR sort gate)
QVQLVESGGGLVQAGGSLRLSCAASGFIFAEYAMGWYRQAPGKERELVAAITSGGSTSYADSVKGRFTISRDNAKNTVYLQMNSLKPEDTAVYYCAATWYYHYNDWKHWYEYGYWGQGTQVTVSS	low polyreactivity
QVQLVESGGGLVQAGGSLRLSCAASGFIFAGYAMGWYRQAPGKERELVAAISSGGGSTYYADSVKGRFTISRDNAKNTVYLQMNSLKPEDTAVYYCAARRLYPPGYYYWGQGTQVTVSS	high polyreactivity
QVQLVESGGGLVQAGGSLRLSCAASGFIFAHNAMGWYRQAPGKARELVAAITSSGGSTYYADSVKGRFTISRDNAKNTVYLQKNSLKPEDTAVYYCNAYTYARRGYDYWGQGTQVTVSS	high polyreactivity
QVQLVESGGGLVQAGGSLRLSCAASGFIFAHNAMGWYRQAPGKERELVADITRDGNTYYADSVKGRFTISRDNAKNTVYLQMNSLKTEDTAVYYCAADVSTTWYWWGQFEFEYWGQGTQVTVSS	high polyreactivity
QVQLVESGGGLVQAGGSLRLSCAASGFIFAKYVMGWYRQAPGKERELVAAISRSGGSTYYADSVKGRFTISRDNAKNTVYLQLNSLKPEDTAVYYCAADQTTTGGMDYWGQGTQITVSS	high polyreactivity
QVQLVESGGGLVQAGGSLRLSCAASGFIFAKYVMGWYRQAPGKERELVAAISRSGGSTYYADSVKGRFTISRDNAKNTVYLQMNSLKPDDTAVYYFAADQTTTGGMDFWGQGTQVTVSS	high polyreactivity
QVQLVESGGGLVQAGGSLRLSCAASGFIFANYAMGWDRQAPGKERELVAAISTSGSSTYYADSVKGRFTISRDNAKNTVYLQMNSLKPKDTAVYYCRTSGKHRLYISSYRFEYWGQGTQVTVSS	high polyreactivity
QVQLVESGGGLVQAGGSLRLSCAASGFIFARYAMGWYRQAPGKERELVAAISVSGGSTYYADSVKGRFTISRDNAKNTVYLQMNSLKPEDTAVYYCAATRPFVSGWIMDYWGQGTQVTVSS	high polyreactivity
QVQLVESGGGLVQAGGSLRLSCAASGFIFARYGMGWYRQAPGKERELVAAIRTSGGTYYADSVKGRFTISRDNAKNTVYLQMNSLKPEDTAVYYCNVYRRVIWPKNYDYWGQGTQVTVSS	high polyreactivity
QVQLVESGGGLVQAGGSLRLSCAASGFIFASNAMGWYRQAPGKERELVAAITRSGGITYYADSVKGRFTISRDNAKNTVYLQMNSLKPEDTAVYYCNKGRRTKNSAYYDYWGQGTQVTVSS	high polyreactivity
QVQLVESGGGLVQAGGSLRLSCAASGFIFASYTMGWYRQAPGKERELVASISRDGGRTSYADSVKGRFTISRDNAKNTVYLQMNSLKPEDTAVYYCAARYWLRSEYWGQGTQVTVSS	high polyreactivity
QVQLVESGGGLVQAGGSLRLSCAASGFIFATYAMGWYRQAPGKERELVAAINRGGSTYYADSVKGRFTISRDNAKNTVYLQMNSLKPEDTAVYYCAAAKRYPTSTWYGYWGQGTQVTVSS	high polyreactivity
QVQLVESGGGLVQAGGSLRLSCAASGFIFATYGMGWYRQAPGKERELVATITSGGRTYYADSVKGRFTISRDNAKNTVYLQMNSLKPDDTAVYYCARASRRYWSMDYWGQGTQVSVSS	high polyreactivity
QVQLVESGGGLVQAGGSLRLSCAASGFIFAVNAMGWYRQAPGKERELVAAISGRGGRTYYADSVKGRFTISRDYAKNTVYLQMNSLKPEDTAVYYCAARSYQYSYSFYWGQGTQVTVSS	high polyreactivity
QVQLVESGGGLVQAGGSLRLSCAASGFIFAVNAMGWYRQAPGKERELVATIRATTTSTYADSVKGRFTISRDNAKNTVYLQMNSLKPEDTAVYYCATDVRTISFEYDYWGQGTQVTVSS	low polyreactivity
QVQLVESGGGLVQAGGSLRLSCAASGFIFAWYAMGWYRQAPGKERELVAAISYSGGSTYYADSVKGRFTISRDNAKNTVYLEMNSLKPEDTAVYYCNKVSRGGSYGHAFDYWGQGTQVTVSS	high polyreactivity
QVQLVESGGGLVQAGGSLRLSCAASGFIFAWYAMGWYRQAPGKERELVASISVSDGSTYYADSVKGRFTISRDNAKNTVYLQMNSLKPEDTAVYYCAAEVSSDYYNSDYYWGQGTQVTVSS	low polyreactivity
QVQLVESGGGLVQAGGSLRLSCAASGFIFAWYAMGWYRQAPGKEREMVAAITSGGRTYYADSVKGRFTISRDNAKNTVYLQMNSLKPEDTAVYYCATDAVASHRPYKYGPQSGSWGQGTQVTVSS	high polyreactivity
QVQLVESGGGLVQAGGSLRLSCAASGFIFAYNAMGWYRQAPGKERELVAAITGSGTRTYYADSVKGRFTISRDKAKNTVYLQMYSLKPEDTAVYYCAARFPRDTYYYWGQGTQVTVSS	high polyreactivity
QVQLVESGGGLVQAGGSLRLSCAASGFIFAYYALGWYRQAPGKERELVAAITWSGGRTYYADSVKGRFTISRDNAKNTVYLQMNSLKPEDTAVYYCNAVRPSVDYGYWGQGTQVTVSS	high polyreactivity
QVQLVESGGGLVQAGGSLRLSCAASGFIFAYYAMGWYRQAPGKERELVAAISSGGRTYYADSVKGRFTISRDNAKNTVYLQMNSLKPEDTAVYYCAAYYRLDYDYWGQGTQVTVSS	high polyreactivity
QVQLVESGGGLVQAGGSLRLSCAASGFIFCTNAMGWYRQAPGKERELVAGISRTGGRTYYADSVKGRFTISRDNAKNTVYLQMNSLKPEDTAVYYCAAVARRHKVYEYDYWGQGTQVTVSS	high polyreactivity

Sequence	polyreactivity (PSR sort gate)
QVQLVESGGGLVQAGGSLRLSCAASGFIFDDNAMGWYRQAPGKERELVATITWSTGSTYYADSVKGRFTISRDNAKNTVYLQMNSLKPEDTAVYYCAKESYFYRYYLAYDYWGQGTQVTVSS	low polyreactivity
QVQLVESGGGLVQAGGSLRLSCAASGFIFDFYTMGWYRQAPGKERELVAAITNGGSTYYADSVKGRFTISRDNAKNTVYLQMNSLKPEDTAVYYCAAYYRSRHHGYDSWGQGTQVTVSS	low polyreactivity
QVQLVESGGGLVQAGGSLRLSCAASGFIFDFYTMGWYSQAPGKERELVAAITNGGSTYYADSVKGRFTISRDNAKNTVYLQMNSLKPEDTAVYYCAAYYRSRHHGYDSWGQGTQVTVSS	low polyreactivity
QVQLVESGGGLVQAGGSLRLSCAASGFIFDGNAMGWYRPAPGKERELVAAIRSGGRTNYADSVNGRFTISRDNAKNTVYLQMNSLKPEDTAVYYCAARSIYPYYYRRDNRYYYWGQGTQVTVSS	high polyreactivity
QVQLVESGGGLVQAGGSLRLSCAASGFIFDGYAMGWYRQAPGKERELVAAISSSGGRTHYADSVKGRFTISRDNAKNTVYLQMNSLKPEDTAVYYCAVRFKWQGYNYWGQGTQVTVSS	high polyreactivity
QVQLVESGGGLVQAGGSLRLSCAASGFIFDINAMGWYRQAPGKERELVAAISYSGGSTYYADSVKGRFTISRDNAKNNVYLQMNSLKPEDTAVYYCAADSGPDSDEGDYWGQGTQVTVSS	low polyreactivity
QVQLVESGGGLVQAGGSLRLSCAASGFIFDINAMGWYRQAPGTERELVADIRGGGSTYYADSVKGRFTISRDNAKNTVYVQMNSLKPEDTAVYYCNALDSYRHRPFDYWGQGTQVTVSS	low polyreactivity
QVQLVESGGGLVQAGGSLRLSCAASGFIFDKYAMGWYRQAPGKERELVAAINWSGDSTYYADSVKGRFTISRDNAKNTVYLQMNSLKPEDTAVYYCNARRPRFRYDYWGQGTQVTVSS	high polyreactivity
QVQLVESGGGLVQAGGSLRLSCAASGFIFDKYSMGWYRQAPGKERELVAAITDTGGNTYYADSVKGRFTISRDNAKNTVYLQMNILKPEDTAVYYSNADYTDYQTYSATTYEYWGQGTQVTVSS	low polyreactivity
QVQLVESGGGLVQAGGSLRLSCAASGFIFDPNAMGWYRLAPGKERELVAAISSSGGRTYYADSVKGRFTISRDNAKNTVYLQMNSLKPEDTAVYYCNARDYSGFQTGASAAFDYWGQGTQVTVSS	low polyreactivity
QVQLVESGGGLVQAGGSLRLSCAASGFIFDPYAMGWYRPAPGKERELVAVITYSAGSTYADSVNGRFTISRDNAKNTVYLQMNSLKPEDTAVYYCAKRWWYNVPLGVLYDYWGQGTQVTVSS	low polyreactivity
QVQLVESGGGLVQAGGSLRLSCAASGFIFDPYAMGWYRQAPGKERELVASINTRGDRTSYADSVKGRFTISRDNAKNTVYLQMNSLKPEDTAVYYCNADAVDQVGPDDDYWGQGTQVTVSS	low polyreactivity
QVQLVESGGGLVQAGGSLRLSCAASGFIFDRNTMGWYRQAPGKERELVATISSTGTTNYADSVKGRFTISRDNAKNTVYLQMNSLKPEDTAVYYCNAYPRWRYVSYYRSYRYDYWGQGTQVTVSS	high polyreactivity
QVQLVESGGGLVQAGGSLRLSCAASGFIFDTNAMGLYRQAPGKERELVATISTSGGSTSYADSVKGRFTISRDNAKNTVYLQMNSLTPEDTAVYYCAARWYFPDRVKYDYWGQGTQVTVSS	low polyreactivity
QVQLVESGGGLVQAGGSLRLSCAASGFIFDTNAMGWSRQAPGKDRELVARISSSAGSTYYAVSVKGRFTISRDNAKNTVYLLMNSLKPEDTAVYYCNADTGLGSLDFDKRDYWGQGTQVTVSS	low polyreactivity
QVQLVESGGGLVQAGGSLRLSCAASGFIFDTYAMGWYRQAPGKERELVAAISWTGTDTYYADSVKGRFTISRDNAKNTVYLQMNSLKPEDTAVYYCATDYGWLYINSIWEYDYWGQGTQVTVSS	high polyreactivity
QVQLVESGGGLVQAGGSLRLSCAASGFIFDWNTMGWYRQAPGKERELVAAITESSGSTYYADSVKGRFTISRDNAKNTVYLQMNSLKPEDTAVYYCAAELDVYVSIGSRFHFDYWGQGTQVTVSS	low polyreactivity
QVQLVESGGGLVQAGGSLRLSCAASGFIFDYNAMGWYRQAPGKERELVAAITSGGGSTYYADSVKGRFTISRDNAKNTVYLQMNSLKPEDTAVYYCNAVPSQHDEFDYWGQGTQVTVSS	low polyreactivity
QVQLVESGGGLVQAGGSLRLSCAASGFIFDYYAMGWYRQAPGKERELVAAITRDGGGTYYADSVKGRFTISRDNAKNTVYLQMNSLKPEDTAVYYCAARRAVRLYYWGQGTQVTVSS	high polyreactivity
QVQLVESGGGLVQAGGSLRLSCAASGFIFDYYAMGWYRQAPGKERELVAAITSRSGSTYYADSVKGRFTISRDNAKNTVYLQMNSLKPEDTAVYYCARRFKYGSTAWRFYYWGQGTQVTVSS	high polyreactivity
QVQLVESGGGLVQAGGSLRLSCAASGFIFDYYAMGWYRQAPGKERELVAAITWSGGSTYYADSVKGRFTISRDNAKYTVFLQMNSLKPEDTAVYYCNAYNWTYCEYEYWGQGTQVTVSS	high polyreactivity
